Results: paper PMC11218785, “Methyltransferase TaSAMT1 mediates wheat freezing tolerance by integrating brassinosteroid and salicylic acid signaling”

Target: T1, MBP-TaBZR1 (Triticum aestivum, UniProt A0A3B6AUH8 1-313)
T1 sequence: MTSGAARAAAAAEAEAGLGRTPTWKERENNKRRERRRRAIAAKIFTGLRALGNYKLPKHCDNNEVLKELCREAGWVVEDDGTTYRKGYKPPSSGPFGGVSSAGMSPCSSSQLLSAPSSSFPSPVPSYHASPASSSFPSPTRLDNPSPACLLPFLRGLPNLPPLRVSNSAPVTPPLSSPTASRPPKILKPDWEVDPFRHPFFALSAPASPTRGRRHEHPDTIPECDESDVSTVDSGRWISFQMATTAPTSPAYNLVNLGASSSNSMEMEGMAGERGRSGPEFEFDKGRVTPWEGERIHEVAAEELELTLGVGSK
Test: EMSA; 1 nM probe; 1x LightShift binding buffer, 50 ng poly(dI-dC), 2.5% glycerol, 0.05% NP-40, 50 mM KCl, 5 mM MgCl2, 2 mM EDTA pH 8.0, 1 nM biotin probe, 25 C 20 min, 6% PAGE
Settings: protein: recombinant; tags: N-terminal MBP (pCold-MBP); chain copies: 2; label: biotin (forward strand primer marked bio); blunt

B1: TaSAMT1-B promoter E-box probe (dsDNA)
DNA 1: CACGCGCATACGTGCTCATATGGCAATGAG
DNA 2: CTCATTGCCATATGAGCACGTATGCGCGTG
Question: Does B1 bind?
Answer: Result: binds
